Source: the Human Domainome abundance scans (Beltran et al. 2025)

B1: Tyrosine-protein kinase BTK, residues 215 to 273; numbered along this chain, Q06187 (parent)
chain: ELKKVVALYDYMPMNANDLQLRKGDEYFILEESNLPWWRARDKNGQEGYIPSNYVTEAE

Variants of: B1
Assay: abundance fitness (aPCA) (normalised: wild type 0, dead -1); higher = more abundant; growth selection in yeast, the domain comes from the species named
Conditions: Homo sapiens

Abundance fitness: each site, then its substitutions
D25: E 0.019 | P -1.15 | G -0.073 | S -0.071 | R -0.068 | Q -0.013 | A -0.046 | K -0.067 | F -0.107 | Y -0.101 | H -0.01 | N -0.074 | M -0.005 | L -0.061
K23: Q -0.077 | D -0.522 | R -0.056 | V -0.072 | C -0.037 | G -0.143 | A -0.024 | L -0.181 | I -0.207 | T -0.112 | M -0.169 | H -0.019 | E -0.058 | W -0.372 | P -0.371
N34: Y -0.102 | A 0.026 | M 0.014 | S 0.033 | R -0.002 | D 0.073 | C 0.046 | H -0.066 | W -0.032 | G 0.07 | Q 0.118 | E 0.037 | P 0.031 | V 0.065 | L 0.033 | T 0.029
E26: K -0.01 | Q -0.079 | R -0.068 | F -0.024 | V -0.032 | A -0.075 | N -0.098 | D -0.061 | S 0 | H -0.134 | G -0.191 | T 0.011 | L -0.01 | C -0.084 | W -0.037 | Y -0.082 | I -0.013 | P -0.041
I29: N -0.698 | H -0.99 | S -0.544 | R -0.436 | F -0.799 | M -0.229 | T -0.212 | G -0.847 | Q -0.624 | D -0.704 | L -0.008 | P -0.483 | K -0.241 | Y -1.02 | E -0.58 | V -0.002 | W -0.855 | A -0.194
D18: Y 0.025 | W -0.07
F28: W 0.032 | G -0.049 | Q -0.069 | T -0.02 | S -0.019 | C -0.096 | Y -0.068 | L -0.004 | N -0.077 | A -0.055 | R -0.012 | E 0.002 | H -0.07 | V -0.009 | P -0.631 | I -0.021 | K -0.141 | D -0.018 | M 0.017
L19: N -0.701 | F -0.391 | E -0.888 | Q -0.711 | G -0.851 | S -0.695 | V -0.314 | Y -0.66 | T -0.75 | R -0.792 | A -0.796 | I -0.124 | P -0.515 | H -0.703 | C -0.444 | D -0.936 | M -0.105
Q20: V -0.082 | W -0.131 | N -0.152 | I -0.084 | T -0.043 | H -0.075 | R -0.013 | A -0.007 | F -0.2 | G -0.001 | C -0.06 | P -0.037 | L -0.055 | D -0.168 | M -0.073 | K -0.075 | E -0.001 | S -0.007 | Y -0.037
W37: S -0.017 | L -0.014 | I -0.097 | C 0.029 | A -0.03 | F -0.011 | K 0.027 | G -0.134 | M 0.006 | Y -0.018 | H 0.014 | E 0.011 | T 0.036 | P -0.227 | D -0.129 | Q 0.021 | V 0.013
P36: N -0.075 | V -0.077 | E -0.024 | C -0.072 | Q 0.002 | Y -0.148 | T -0.1 | S -0.013 | D -0.013 | R -0.029 | I -0.294 | G -0.089 | L -0.094 | W -0.17 | K 0.011 | F -0.437 | A 0.012
E31: I -0.117 | W -0.105 | G -0.051 | P -0.162 | N -0.058 | C -0.034 | F -0.005 | M 0.026 | V -0.119 | R -0.028 | H -0.054 | Q 0.072 | T -0.04 | L -0.122 | A -0.008 | D -0.058 | S 0.05
R22: F -0.036 | L -0.002 | W -0.099 | T -0.037 | V 0.031 | S -0.003 | P -0.768 | Y 0 | A -0.032 | K 0.049 | N -0.012 | G -0.257 | Q -0.011 | E -0.041 | C -0.004 | H -0.08 | I -0.026
W38: K -0.008 | F -0.031 | A -0.017 | C -0.027 | D -0.157 | H -0.029 | L -0.005 | G -0.22
L30: A -0.12 | F -0.038 | E -0.104 | G -0.398 | Q -0.159 | C -0.207 | P -0.365 | N -0.346 | V -0.015 | I -0.026 | S -0.175 | W -0.147 | M -0.087 | K -0.076 | Y -0.056 | T -0.03 | R -0.223 | D -0.397
S33: H -0.087 | E -0.038 | P 0.006 | M -0.02 | V -0.054 | Q 0.016 | K 0.009 | G -0.019 | W -0.072 | R -0.07 | F -0.015 | L -0.06 | A 0.026 | D -0.088 | T 0.005 | C -0.039 | Y -0.065
Y27: F -0.157 | L -0.053 | S -0.69 | I -0.054 | E -0.646 | C -0.299 | A -0.339 | K -0.771 | W -0.96 | P -0.624 | D -0.692 | R -0.772 | H -0.754 | M -0.362 | T -0.698 | G -0.745 | N -0.537 | V -0.022
G24: L -0.382 | A -0.252 | M -0.223 | Y -0.193 | V -0.987 | S -0.226 | W -0.34 | P -0.748 | K -0.302 | C -0.472 | E -0.276 | N -0.096 | I -0.799 | F -0.156 | H -0.178 | Q -0.302 | T -0.395 | D -0.09
L21: A -0.671 | M -0.079 | C -0.349 | H -0.761 | G -1.06 | D -1.05 | V -0.079 | T -0.523 | R -0.998 | F -1.01 | S -0.811 | K -0.892 | P -0.724 | N -0.806 | Q -0.754 | E -0.793 | Y -1.09 | W -1.09
L35: E -0.022 | F 0.012 | W -0.015 | N -0.06 | H -0.002 | M -0.028 | V -0.017 | P 0 | D 0.05 | Q -0.012 | R -0.006 | S -0.041 | I 0.005 | C -0.082 | A -0.08 | K -0.039
E32: K -0.133 | I -0.202 | R -0.038 | F -0.173 | H -0.114 | V 0.014 | T -0.013 | S -0.018 | A 0.016 | W -0.09 | M -0.082 | N -0.055 | P -0.007 | Q 0.028 | Y -0.083
